This data set concerns Escherichia coli TOP10. Nature of the data set: shrunken log2 fold change of peptide-encoding DNA abundance (4.5 h post-induction vs induction); higher = less antimicrobial activity (less host growth inhibition). The following applies: time post-induction: 4.5 h; library: site-saturation at positions 5, 18, 19, 20.

This note sets out measurements from the supplement of paper PMC9112550, “Optimization of the antimicrobial peptide Bac7 by deep mutational scanning” (BMC Biology, 2022).
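Further: peptides expressed intracellularly from a pBAD plasmid library in pooled LB shake-flask culture, induced with 0.3% L-arabinose, DNA abundance read by NGS, three biological replicates, DESeq2 with apeglm shrinkage.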

For RRIRRRPPRLPRPRPRPWWFPRP, the “shrunken log2 fold change” value is -0.378.

With RRIRKRPPRLPRPRPRPESEPRP, the “shrunken log2 fold change” value was 2.93. Regarding RRIRNRPPRLPRPRPRPHMQPRP, the “shrunken log2 fold change” value was -0.304. For the sequence RRIRDRPPRLPRPRPRPHLEPRP, the “shrunken log2 fold change” value is -0.169.

For the sequence RRIRKRPPRLPRPRPRPNYIPRP, the “shrunken log2 fold change” value was -0.0745. Next, RRIRQRPPRLPRPRPRPLDGPRP: 0.237; RRIRGRPPRLPRPRPRPQKLPRP: 0.13. For RRIRARPPRLPRPRPRPCQGPRP, the “shrunken log2 fold change” value is -0.11. Regarding RRIRTRPPRLPRPRPRPSLGPRP, the “shrunken log2 fold change” value was -0.229. RRIRQRPPRLPRPRPRPSKIPRP: the “shrunken log2 fold change” value was -0.143.

For the sequence RRIRHRPPRLPRPRPRPTYNPRP, the “shrunken log2 fold change” value was -0.758. In the case of RRIRPRPPRLPRPRPRPCCIPRP, the “shrunken log2 fold change” value was -0.269.

On to RRIRNRPPRLPRPRPRPAHMPRP, for which the “shrunken log2 fold change” value is -0.167. The same measure for RRIRYRPPRLPRPRPRPDPQPRP: -0.0137; for RRIRVRPPRLPRPRPRPWCRPRP: -0.396; for RRIRRRPPRLPRPRPRPTNLPRP: 0.068. For RRIRCRPPRLPRPRPRPKCPPRP, the “shrunken log2 fold change” value is 0.0246. RRIRVRPPRLPRPRPRPTYTPRP: the “shrunken log2 fold change” value was -0.172. On to RRIRPRPPRLPRPRPRPGTGPRP, for which the “shrunken log2 fold change” value was -0.0651. As for RRIRGRPPRLPRPRPRPILHPRP, the “shrunken log2 fold change” value is 0.0775. RRIRRRPPRLPRPRPRPCSRPRP: the “shrunken log2 fold change” value came to 0.00396.

Consider RRIRTRPPRLPRPRPRPLMAPRP, for which the “shrunken log2 fold change” value was -0.031. Regarding RRIRWRPPRLPRPRPRPGMLPRP, the “shrunken log2 fold change” value is -0.11. The same measure for RRIRIRPPRLPRPRPRPTQIPRP: 0.245. Consider RRIRFRPPRLPRPRPRPGSTPRP, for which the “shrunken log2 fold change” value was -0.183. In the case of RRIRNRPPRLPRPRPRPMIRPRP, the “shrunken log2 fold change” value was -0.0231. For the sequence RRIRSRPPRLPRPRPRPLCDPRP, the “shrunken log2 fold change” value was determined as 0.155. Consider RRIRSRPPRLPRPRPRPPRNPRP, for which the “shrunken log2 fold change” value stood at 0.415.

Take RRIRIRPPRLPRPRPRPTDYPRP: the “shrunken log2 fold change” value was -0.223. Consider RRIRERPPRLPRPRPRPQMGPRP, for which the “shrunken log2 fold change” value is -0.115. As to RRIRGRPPRLPRPRPRPIMSPRP, the “shrunken log2 fold change” value turned out to be 0.0881. Consider RRIRFRPPRLPRPRPRPGPCPRP, for which the “shrunken log2 fold change” value was 0.0242. For RRIRYRPPRLPRPRPRPDGDPRP, the “shrunken log2 fold change” value stood at 0.00902. In the case of RRIRGRPPRLPRPRPRPECQPRP, the “shrunken log2 fold change” value amounted to 0.381. The same measure for RRIRIRPPRLPRPRPRPHWWPRP: 0.133. Regarding RRIRYRPPRLPRPRPRPIQNPRP, the “shrunken log2 fold change” value was -0.219. In the case of RRIRARPPRLPRPRPRPMHDPRP, the “shrunken log2 fold change” value is 0.341. For the sequence RRIRCRPPRLPRPRPRPKDPPRP, the “shrunken log2 fold change” value stood at 0.148. In the case of RRIRRRPPRLPRPRPRPAFLPRP, the “shrunken log2 fold change” value was -0.0132. With RRIRRRPPRLPRPRPRPFFFPRP, the “shrunken log2 fold change” value came out at 0.504. Take RRIRVRPPRLPRPRPRPGCQPRP: the “shrunken log2 fold change” value was -0.0161. In the case of RRIRRRPPRLPRPRPRPQYHPRP, the “shrunken log2 fold change” value is -0.145. The same measure for RRIRARPPRLPRPRPRPGEEPRP: 0.999; for RRIRIRPPRLPRPRPRPDYLPRP: -0.0127; for RRIRRRPPRLPRPRPRPFEPPRP: 0.152. Turning to RRIRNRPPRLPRPRPRPVVVPRP, the “shrunken log2 fold change” value was -0.11.

In the case of RRIRSRPPRLPRPRPRPCEYPRP, the “shrunken log2 fold change” value stood at 0.0232. As to RRIRIRPPRLPRPRPRPYSAPRP, the “shrunken log2 fold change” value is -0.221. With RRIRHRPPRLPRPRPRPLCEPRP, the “shrunken log2 fold change” value was determined as 0.197. Next, RRIRSRPPRLPRPRPRPINWPRP: -0.161. The same measure for RRIRARPPRLPRPRPRPLNIPRP: 0.0473. Next, RRIRNRPPRLPRPRPRPIEPPRP: -0.00208; RRIRTRPPRLPRPRPRPKSPPRP: -0.0758; RRIRMRPPRLPRPRPRPTDAPRP: 0.741.

As to RRIRDRPPRLPRPRPRPIWFPRP, the “shrunken log2 fold change” value was -0.192. Next, RRIRPRPPRLPRPRPRPKMHPRP: 0.153; RRIRERPPRLPRPRPRPSVFPRP: -0.0831. Turning to RRIRFRPPRLPRPRPRPLEGPRP, the “shrunken log2 fold change” value is 0.0031. RRIRQRPPRLPRPRPRPKMQPRP: the “shrunken log2 fold change” value is -0.134. With RRIRWRPPRLPRPRPRPQGIPRP, the “shrunken log2 fold change” value turned out to be 0.102. Regarding RRIRMRPPRLPRPRPRPLTCPRP, the “shrunken log2 fold change” value was -0.0821. For RRIRRRPPRLPRPRPRPTHRPRP, the “shrunken log2 fold change” value was found to be 0.867.

Regarding RRIRFRPPRLPRPRPRPYRAPRP, the “shrunken log2 fold change” value is -0.353. Next, RRIRPRPPRLPRPRPRPEFSPRP: -0.0202. Regarding RRIRTRPPRLPRPRPRPNIHPRP, the “shrunken log2 fold change” value is -0.586. RRIRDRPPRLPRPRPRPYQAPRP: the “shrunken log2 fold change” value is -0.0283. Consider RRIRCRPPRLPRPRPRPFNCPRP, for which the “shrunken log2 fold change” value is -1.32.

RRIRPRPPRLPRPRPRPCNPPRP: the “shrunken log2 fold change” value was -0.0662. The same measure for RRIRARPPRLPRPRPRPQMVPRP: -0.0332; for RRIRQRPPRLPRPRPRPFQIPRP: 0.0399; for RRIRQRPPRLPRPRPRPEEEPRP: 0.00797. On to RRIRNRPPRLPRPRPRPVAIPRP, for which the “shrunken log2 fold change” value is -0.507.

Consider RRIRMRPPRLPRPRPRPFRYPRP, for which the “shrunken log2 fold change” value came to 0.0191. As to RRIRFRPPRLPRPRPRPREYPRP, the “shrunken log2 fold change” value is -0.415. As for RRIRQRPPRLPRPRPRPLSDPRP, the “shrunken log2 fold change” value is -0.0651. The same measure for RRIRRRPPRLPRPRPRPWYMPRP: -0.0284; for RRIRRRPPRLPRPRPRPIWRPRP: 0.181; for RRIRVRPPRLPRPRPRPGDCPRP: 0.404. On to RRIRTRPPRLPRPRPRPQDMPRP, for which the “shrunken log2 fold change” value was -0.48. On to RRIRIRPPRLPRPRPRPCFTPRP, for which the “shrunken log2 fold change” value was -0.519. The same measure for RRIRPRPPRLPRPRPRPSCDPRP: -0.273; for RRIRARPPRLPRPRPRPNQIPRP: 0.0775; for RRIRCRPPRLPRPRPRPWPKPRP: 0.0772. In the case of RRIRNRPPRLPRPRPRPEGVPRP, the “shrunken log2 fold change” value came out at 0.205. The same measure for RRIRTRPPRLPRPRPRPVMVPRP: -0.0537; for RRIRVRPPRLPRPRPRPFPPPRP: -0.0462; for RRIRWRPPRLPRPRPRPMLGPRP: 0.464. RRIRRRPPRLPRPRPRPMYYPRP: the “shrunken log2 fold change” value is -0.232. In the case of RRIRCRPPRLPRPRPRPDFMPRP, the “shrunken log2 fold change” value was -0.163. Consider RRIRKRPPRLPRPRPRPRLHPRP, for which the “shrunken log2 fold change” value turned out to be 0.312.

In the case of RRIRNRPPRLPRPRPRPSNGPRP, the “shrunken log2 fold change” value was -0.12.
